Source: patent publication US20230018670A1 (WIN THERAPEUTICS, published 2023)
Where “and” joins values, the source holds several entries; their conditions need not be identical. Equal values may be shown once.

T1: B7H3 (antigen of the 'B7H3 Octet' value)
T1 construct: antigen of the Octet measurement
T1 sequence (Q5ZPR3 whole entry, species assumed, looked up): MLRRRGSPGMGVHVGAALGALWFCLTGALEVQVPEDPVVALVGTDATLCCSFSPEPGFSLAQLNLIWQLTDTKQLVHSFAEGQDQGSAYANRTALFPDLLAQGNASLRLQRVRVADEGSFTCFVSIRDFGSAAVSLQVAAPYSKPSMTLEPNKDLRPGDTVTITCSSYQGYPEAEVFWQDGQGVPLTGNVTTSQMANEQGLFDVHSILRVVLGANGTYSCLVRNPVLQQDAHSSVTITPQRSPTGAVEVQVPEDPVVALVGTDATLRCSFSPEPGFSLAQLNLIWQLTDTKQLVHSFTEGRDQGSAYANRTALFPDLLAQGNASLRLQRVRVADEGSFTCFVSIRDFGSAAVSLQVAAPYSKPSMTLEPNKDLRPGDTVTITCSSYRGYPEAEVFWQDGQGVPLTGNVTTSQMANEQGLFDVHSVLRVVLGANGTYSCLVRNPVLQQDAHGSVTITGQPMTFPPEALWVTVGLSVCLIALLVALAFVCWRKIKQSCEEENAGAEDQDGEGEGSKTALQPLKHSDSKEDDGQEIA

T2: mB7H3 (endogenous mouse B7H3 on B16 and B78 cells) (mouse, UniProt Q8VE98)
T2 construct: B78 also carries GD2; also called murine B7H3
T2 sequence (receptor, looked up): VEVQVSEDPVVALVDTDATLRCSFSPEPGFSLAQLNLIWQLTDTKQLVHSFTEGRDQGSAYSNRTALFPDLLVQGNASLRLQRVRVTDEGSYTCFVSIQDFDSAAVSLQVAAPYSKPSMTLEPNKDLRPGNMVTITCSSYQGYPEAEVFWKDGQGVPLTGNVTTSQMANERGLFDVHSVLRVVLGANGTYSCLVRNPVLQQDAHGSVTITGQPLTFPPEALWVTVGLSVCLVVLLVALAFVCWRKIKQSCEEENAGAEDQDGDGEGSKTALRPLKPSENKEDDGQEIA

B1: INV721 (bivalent bispecific anti-B7H3 x anti-GD2 antibody) (bispecific antibody, V domains shown)
VL 1: DIQMTQSPSSLSASVGDRVTITCRASQSVSSAVAWYQQKPGKAPKLLIYSASSLYSGVPSRFSGSRSGTDFTLTISSLQPEDFATYYCQQSGRSLYTFGQGTKVEIK
VH 1: EVQLVESGGGLVQPGGSLRLSCAASGFTFSTYYIHWVRQAPGKGLEWVAWIHPSGKYTYYADSVKGRFTISADTSKNTAYLQMNSLRAEDTAVYYCARHYQVGAMDYWGQGTLVTVSS
VL 2: DIQMTQSPSSLSASVGDRVTITCRSSQSLVHRNGNTYLHWYQQKPGKAPKLLIHKVSNRFSGVPSRFSGSGSGTDFTLTISSLQPEDFATYYCSQSTHVPPLTFGQGTKVEIK
VH 2: EVQLVESGGGLVQPGGSLRLSCAASGSSFTGYNMNWVRQAPGKGLEWVAAIDPYYGGTYYADSVKGRFTISADTSKNTAYLQMNSLRAEDTAVYYCASGMEYWGQGTLVTVSS
modifications: 89Zr-radiolabelled in the PET and biodistribution studies. An a-fucosylated version is used in FIG. 66.
notes: 89Zr-labelled in the in vivo PET study; also called I7-01/GD2-5/7; I7-01/GD2-7
B2: Invenra GD2-5 (antibody, V domains shown)
VH: B1 VH 2
VL: B1 VL 2
notes: anti-GD2 antibody; stands here only as a control on B16 cells; also called GD2-05; anti-GD2 monoclonal antibody GD2-5

Tests used:
[1] = target: T1, B7H3 (antigen of the 'B7H3 Octet' value); experiment: Octet, monovalent affinity of the B7H3 arm; construct measured and form of B7H3 not given
[2] = target: T3, B7 Homolog 3 (B7H3) on B78 melanoma tumor cells; experiment: cell binding, RFU, B7H3 B78 cells (GD2 and human B7H3); both arms can bind
T3 construct: whole, on cells; In the PET study, tumours that were B7H3-positive and GD2-negative were also used; also called CD276; Cluster of Differentiation 276

[3] = target: T2, mB7H3 (endogenous mouse B7H3 on B16 and …); experiment: flow cytometry on B16 cells (no GD2, mouse B7H3), GAH PE; anti-GD2 antibody as control

Binder	Kd [1] [pM]	EC50 [2]	binding result [3]
B1	2400	350 pM and 357 pM	–
B2	–	–	no binding (tested: 1 ug antibody per million cells)
